Measurements from patent US10925867B2, “Immunotherapeutic dosing regimens comprising pomalidomide and an anti-CS1 antibody for treating cancer” (Bristol-Myers Squibb Company, priority 2015, dated 2021).

Tests used:
[1] = Infusion reactions in Study CA204009; format: in vivo, human
Excerpt: Elotuzumab can cause infusion reactions. Infusion reactions were reported in approximately 10% of patients treated with elotuzumab, lenalidomide and dexamethasone in Study CA204004 and in 7% of patients treated with elotuzumab, bortezomib and dexamethasone in Study CA204009. All reports of infusion reaction were ≤Grade 3. Grade 3 infusion reactions occurred in 1% of patients in Study CA204004 and in no patients in Study CA204009. The most common symptoms of an infusion reaction included fever, chills and hypertension. In Study CA204004, 5% of patients required interruption of the administration of elotuzumab due to infusion reaction for a median of 25 minutes and 1% of patients discontinued due to infusion reactions. In Study CA204009, 20% of patients required interruption of the administration of elotuzumab for a median of 40 minutes and none discontinued due to infusion reactions. Of the patients who experienced an infusion reaction, 70% (23/33) in Study CA204004 and 80% (4/5) in Study CA204009 had them during the first dose.
The maximum infusion rate of 2 ml/min was initially explored in the phase 1 and 2 elotuzumab clinical trials. However, the phase 2 portion of the CA204003 (1703) and the CA204009 studies allowed an infusion rate escalation in subjects without infusion reactions for a minimum of 4 cycles of study therapy at 2 ml/min. The infusion rates are allowed to increase by 1 ml/min per cycle, up to 5 ml/min.
Preliminary safety data of the 5 ml/minute infusion rate are based on an analysis of subjects who escalated the elotuzumab infusion to 5 ml/minute in the CA204003 (1703) and CA204009 studies. In the phase 2 portion of the CA204003 (1703) study, 33% of all study infusions and 42.5% of subjects received infusions at 5 ml/min. In subjects who were administered infusions ≤2 ml/min, there were 7 grade 1-2 infusion reactions, and 1 grade 3-4 infusion reaction. […] In the randomized phase 2 CA204009 study, 27% of all subjects and 9% of all infusions on the investigational arm received infusions at 5 ml/min.

[2] = system: relapsed or refractory multiple myeloma; conditions: with lenalidomide and low-dose dexamethasone; 10 mg/kg dose; cited from earlier work
SLAMF7 = molecular target: T1, SLAMF7 (Homo sapiens, UniProt Q9NQ25); test: Saturation of SLAMF7 on bone marrow plasma cells, Phase 2 study of elotuzumab and lenalidomide/dexamethasone; format: in vivo; conditions: doses ≥10 mg/kg
T1 construct: endogenous in cells; host or cells: bone marrow plasma (myeloma) cells from multiple myeloma subjects treated with elotuzumab plus lenalidomide/dexamethasone
Method: FIG. 7. Saturation of SLAMF7 Target on Bone Marrow Myeloma Samples from Subjects Treated in a Phase 2 Study of Elotuzumab and Lenalidomide/Dexamethasone (HuLuc63).
Following elotuzumab dosing of 10 and 20 mg/kg in combination with lenalidomide, the observed steady-state Cmin values consistently remained above 70 μg/mL, the minimum efficacious trough concentrations (Lonial et. al., J Clin Oncol. 30(16):1953-1959. (2012)). […] Given the lack of difference in efficacy, safety, PK and SLAMF7 saturation between 10 and 20 mg/kg, the 10 mg/kg weekly for the first 2 cycles followed by 20 mg/kg monthly thereafter, was selected to improve patient convenience and compliance.

T1 sequence (Q9NQ25 23-335): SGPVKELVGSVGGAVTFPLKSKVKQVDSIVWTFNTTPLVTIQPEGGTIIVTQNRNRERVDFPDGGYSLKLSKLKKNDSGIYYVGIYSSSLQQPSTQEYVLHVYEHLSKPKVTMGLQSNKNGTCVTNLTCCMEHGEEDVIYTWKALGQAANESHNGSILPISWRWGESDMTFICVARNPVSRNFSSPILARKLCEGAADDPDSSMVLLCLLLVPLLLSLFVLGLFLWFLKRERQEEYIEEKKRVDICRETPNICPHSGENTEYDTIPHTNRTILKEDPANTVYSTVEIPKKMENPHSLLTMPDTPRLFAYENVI

saturation of SLAMF7 on bone marrow plasma cells (SLAMF7): complete saturation
Substance: Elotuzumab: humanized monoclonal IgG1 antibody directed against CS-1; VL SEQ ID NO:1, VH SEQ ID NO:2
median duration of interruption [1]: 40 min
patients discontinued due to infusion reactions [1]: none
patients requiring interruption of administration [1]: 20%
patients with Grade 3 infusion reactions [1]: no patients
patients with infusion reaction who had it during the first dose [1]: 80%
infusion reactions ([1]; subjects reaching infusion rates >2 ml/min): no infusion reactions of any grade
patients with infusion reactions ([1]; with bortezomib and dexamethasone): 7%
PFS [2]: 33 month
response rate [2]: 92%
